In US20090081238A1 (Genentech, published 2009):

Tests used:
[1] = target: mEGF34+NRR-L1597H-FLAG-TEV-Fc (mouse) (UniProt Q01705); assay: ELISA, target coated on the plate at 1 ug/ml, IgG titrated in 3-fold steps, detected with peroxidase anti-human Fab; A630
hFLAG-NRR-His6 (102V) = target: T1, hFLAG-NRR-His6 (102V) (human, UniProt P46531 1447-1733); assay: as above
T1 construct: no EGF-like repeats; not shown: FLAG tag; thrombin cleavage site and HIS tag
Procedure: (§1) 1 μg/ml of proteins in PBS, pH 7.4, were coated on ELISA plates (Nunc Maxisorp) at 4° C. overnight. Plates were blocked with Casein blocker in PBS (phosphate buffered saline; Pierce) for one hour at room temperature. Serial 3-fold dilutions of anti Notch1 NRR IgGs or irrelevant IgG in PBST buffer (PBT buffer (PBS+0.05% (v/v) Tween 20) with 0.5% (w/v) BSA) were added to the plates and incubated for one hour at room temperature. The plates were then washed with PBST and bound antibodies were detected with peroxidase-conjugated goat anti human Fab specific IgG (Sigma). TMB substrate (3,3′,5,5′-etramethylbenzidine) was used and absorbance at 650 nm was read using a standard ELISA plate reader. Absorbance was plotted against concentrations of IgGs using KaleidaGraph (Synergy Software).

[2] = target: T2, mFLAG-EGF34+NRR-His6, the mouse Notch1 NRR immunogen (Notch1 V1307-Q1723) (mouse, UniProt Q01705 1307-1723); assay: as above
T2 construct: the rest carries an N-terminal FLAG tag and a C-terminal His tag; also called mNotch1 NRR; murine NRR1
Procedure: as §1

[3] = target: T3, hFLAG-EGF34+NRR-His6 (101V), the human Notch1 NRR immunogen (Notch1 V1307-Q1733) (human, UniProt P46531 1307-1733); assay: as above
T3 construct: also called hNotch1 NRR; human NRR1
Procedure: as §1

[4] = target: T2, mFLAG-EGF34+NRR-His6, the mouse Notch1 …; assay: SPR (BIAcore-3000), IgG captured by anti-human IgG, NRR1-ECD injected 3.9-500 nM, 25 C
Procedure: (§2) To further characterize the binding affinity and binding kinetics of the anti-Notch1 NRR Mabs, surface plasmon resonance (SRP) measurement with a BIAcore™-3000 was used (BIAcore, Inc., Piscataway, N.J.). Briefly, carboxymethylated dextran biosensor chips (CM5, BIAcore Inc.) were activated with N-ethyl-N′-(3-dimethylaminopropyl)-carbodiimide hydrochloride (EDC) and N-hydroxysuccinimide (NHS) according to the supplier's instructions. Rabbit anti human antibody (Pierce) was diluted with 100 mM sodium acetate, pH 4.8, into 20 μg/ml before injection at a flow rate of 5 μl/minute to achieve approximately 3000 response units (RU) of coupled antibody. Next, 1M ethanolamine was injected to block unreacted groups. Anti-NRR1 mab (formatted as a full-length IgG) was captured by rabbit anti-human IgG coated on the chips to achieve approximately 200 response units (RU). For kinetics measurements, two-fold serial dilutions of human NRR1-ECD or murine NRR1-ECD proteins (3.9 nM to 500 nM) were injected in PBT buffer (PBS with 0.05% Tween 20) at 25° C. with a flow rate of 30 μl/min. Association rates (kₒₙ) and dissociation rates (koff) were calculated using a simple one-to-one Langmuir binding model (BIAcore Evaluation Software version 3.2). The equilibrium dissociation constant (KD) was calculated as the ratio koff/kₒₙ.

[5] = target: T3, hFLAG-EGF34+NRR-His6 (101V), the human …; assay: as above
Procedure: as §2

[6] = target: T2, mFLAG-EGF34+NRR-His6, the mouse Notch1 …; assay: competitive phage-binding ELISA: phage-displayed Fab, soluble NRR1 titrated against coated NRR1
Procedure: (§3) To identify the phage antibodies that bound to both human and murine Notch1 NRR, all unique clones were tested for binding to human and murine Notch1 by ELISA. The affinities of phage antibodies were ranked using single spot competition ELISA as described below in this Example. The phage antibody IC50 values were further determined using competitive phage-binding ELISA essentially described in Lee, C. V., et al. (2004) J Mol Biol 340, 1073-93. Briefly, NUNC 96 well Maxisorp immunoplates were coated overnight at 4° C. with 1 μg/ml human NRR1 or murine NRR1, and were blocked for 1 hour at room temperature with blocking buffer PBST (PBS and 1% BSA and 0.05% Tween 20). Phage was mixed with serial dilution of human or murine NRR1 at room temperature for 1 hour before the mixture was added to human and murine NRR1 coated plate. Bound phage were detected with anti-M13 HRP conjugates, developed with TMB substrate for approximately 5 minutes, quenched with 1M H₃PO₄, and read spectrophotometrically at 450 nm.

[7] = target: T3, hFLAG-EGF34+NRR-His6 (101V), the human …; assay: as above
Procedure: as §3

T3 sequence (P46531 other isoform, or with tags, fused parts or gaps limits assumed): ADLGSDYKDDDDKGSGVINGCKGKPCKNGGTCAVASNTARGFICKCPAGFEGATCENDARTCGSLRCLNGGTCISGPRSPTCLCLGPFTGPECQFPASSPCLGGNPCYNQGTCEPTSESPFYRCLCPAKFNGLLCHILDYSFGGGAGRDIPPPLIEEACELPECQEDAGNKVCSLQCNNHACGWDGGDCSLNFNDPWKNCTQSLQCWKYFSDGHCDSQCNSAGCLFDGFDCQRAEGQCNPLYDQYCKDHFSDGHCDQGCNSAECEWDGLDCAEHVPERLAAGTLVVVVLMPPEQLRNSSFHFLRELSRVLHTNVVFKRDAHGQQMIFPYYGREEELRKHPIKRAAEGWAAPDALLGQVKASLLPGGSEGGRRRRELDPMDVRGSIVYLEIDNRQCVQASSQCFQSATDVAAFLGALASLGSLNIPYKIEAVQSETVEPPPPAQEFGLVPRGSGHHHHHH
T2 sequence (Q01705 other isoform, or with tags, fused parts or gaps): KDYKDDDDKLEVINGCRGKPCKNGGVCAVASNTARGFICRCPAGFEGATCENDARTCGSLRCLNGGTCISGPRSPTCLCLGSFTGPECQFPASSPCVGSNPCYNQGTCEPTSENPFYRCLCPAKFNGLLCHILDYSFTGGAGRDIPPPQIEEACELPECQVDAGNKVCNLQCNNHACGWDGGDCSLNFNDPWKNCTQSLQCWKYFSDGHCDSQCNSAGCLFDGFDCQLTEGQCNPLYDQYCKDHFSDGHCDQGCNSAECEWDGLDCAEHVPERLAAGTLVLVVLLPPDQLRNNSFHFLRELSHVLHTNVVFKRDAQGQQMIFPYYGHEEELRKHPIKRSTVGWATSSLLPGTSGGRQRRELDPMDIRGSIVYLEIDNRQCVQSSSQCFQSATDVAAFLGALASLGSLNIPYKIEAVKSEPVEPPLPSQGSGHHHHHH
T1 sequence (P46531 1447-1733): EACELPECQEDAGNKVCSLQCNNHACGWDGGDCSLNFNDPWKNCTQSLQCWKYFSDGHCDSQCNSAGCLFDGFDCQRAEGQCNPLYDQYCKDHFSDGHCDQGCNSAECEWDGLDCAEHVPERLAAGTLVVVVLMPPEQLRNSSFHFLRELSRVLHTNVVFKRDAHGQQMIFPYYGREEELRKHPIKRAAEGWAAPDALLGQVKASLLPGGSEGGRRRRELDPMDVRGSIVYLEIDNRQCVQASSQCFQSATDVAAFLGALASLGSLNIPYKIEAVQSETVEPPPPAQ
Chain of mEGF34+NRR-L1597H-FLAG-TEV-Fc (mouse) (Q01705 1307-1723, stated change not applied): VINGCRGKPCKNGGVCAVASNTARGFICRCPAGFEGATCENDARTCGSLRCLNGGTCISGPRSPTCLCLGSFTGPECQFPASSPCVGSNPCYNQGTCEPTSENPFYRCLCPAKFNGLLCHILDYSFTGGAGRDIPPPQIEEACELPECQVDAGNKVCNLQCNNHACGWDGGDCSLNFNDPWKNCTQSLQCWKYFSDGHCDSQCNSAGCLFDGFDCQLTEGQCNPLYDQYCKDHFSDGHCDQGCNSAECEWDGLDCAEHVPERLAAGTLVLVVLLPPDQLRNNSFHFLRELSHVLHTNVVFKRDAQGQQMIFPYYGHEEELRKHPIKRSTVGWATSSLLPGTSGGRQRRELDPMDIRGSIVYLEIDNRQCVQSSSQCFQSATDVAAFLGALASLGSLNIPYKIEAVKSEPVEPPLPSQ

B1: Antibody A-1 (antibody, V domains shown)
VH: EVQLVESGGGLVQPGGSLRLSCAASGFTFSSYWIHWVRQAPGKGLEWVARINPPNGSAHYADSVKGRFTISADTSKNTAYLQMNSLRAEDTAVYYCARGSGFRWVMDYWGQGTLVTVSS
VL: DIQMTQSPSSLSASVGDRVTITCRASQDVSTAVAWYQQKPDGTVKLLIYSASFLYSGVPSRFSGSGSGTDFTLTISSLQPEDFATYYCQQSYTTPATFGQGTKVEIKR
notes: also called Antibody A-1-hIgG1
With B1 the EC50 (read off the curve) [1] was 0.06 µg/mL, the “EC50 (read off the curve)” value (hFLAG-NRR-His6 (102V)) was roughly 0.1 µg/mL and the “EC50 (read off the curve)” value [2] was roughly 0.07 µg/mL. For the same binder, the “EC50 (read off the curve)” value [3] was roughly 0.2 µg/mL, the Kd [4] was 3.88 nM and the koff [4] was 0.00033 s⁻¹. The kon [4] was 85000 M⁻¹ s⁻¹, the Kd [5] was 3.43 nM and the koff [5] was 0.00023 s⁻¹. The kon [5] was 67000 M⁻¹ s⁻¹.

B2: Antibody A-1 (phage-displayed Fab clone) (Fab, V domains shown)
VH: EVQLVESGGGLVQPGGSLRLSCAASGFTFSSYWIHWVRQAPGKGLEWVARINPPNGSAHYADSVKGRFTISADTSKNTAYLQMNSLRAEDTAVYYCARGSGFRWVMDYWGQGTLVTVSS
VL: DIQMTQSPSSLSASVGDRVTITCRASQDVSTAVAWYQQKPDGTVKLLIYSASFLYSGVPSRFSGSGSGTDFTLTISSLQPEDFATYYCQQSYTTPATFGQGTKVEIKR
B2 showed an IC50 [6] of 0.6 nM and an IC50 [7] of 0.8 nM.

B3: Antibody A-3 (antibody, V domains shown)
VH: EVQLVESGGGLVQPGGSLRLSCAASGFTFSSYWIHWVRQAPGKGLEWVARINPANGSTRYADSVKGRFTISADTSKNTAYLQMNSLRAEDTAVYYCARGSGFRWVMDYWGQGTLVTVSS
VL: DIQMTQSPSSLSASVGDRVTITCRASQDVSTAVAWYQQKPDGTVKLLIYSASFLYSGVPSRFSGSGSGTDFTLTISSLQPEDFATYYCQQSFSTPATFGQGTKVEIK
Work on B3 yielded a Kd [4] of 13 nM, a koff [4] of 0.0012 s⁻¹ and a kon [4] of 92000 M⁻¹ s⁻¹. The Kd [5] was 5.88 nM, the koff [5] was 0.0004 s⁻¹ and the kon [5] was 68000 M⁻¹ s⁻¹.

B4: Antibody A-3 (phage-displayed Fab clone) (Fab, V domains shown)
VH: EVQLVESGGGLVQPGGSLRLSCAASGFTFSSYWIHWVRQAPGKGLEWVARINPANGSTRYADSVKGRFTISADTSKNTAYLQMNSLRAEDTAVYYCARGSGFRWVMDYWGQGTLVTVSS
VL: DIQMTQSPSSLSASVGDRVTITCRASQDVSTAVAWYQQKPDGTVKLLIYSASFLYSGVPSRFSGSGSGTDFTLTISSLQPEDFATYYCQQSFSTPATFGQGTKVEIK
In the case of B4, the IC50 [6] is reported as 2.5 nM and the IC50 [7] is reported as 0.5 nM.

B5: Antibody A-2 (phage-displayed Fab clone) (Fab, V domains shown)
VH: EVQLVESGGGLVQPGGSLRLSCAASGFTFSSYWIHWVRQAPGKGLEWVARINPPNRSNQYADSVKGRFTISADTSKNTAYLQMNSLRAEDTAVYYCARGSGFRWVMDYWGQGTLVTVSS
VL: DIQMTQSPSSLSASVGDRVTITCRASQDVSTAVAWYQQKPDGTVKLLIYSASFLYSGVPSRFSGSGSGTDFTLTISSLQPEDFATYYCQQFYTTPSTFGQGTKVEIKR
Work on B5 yielded an IC50 [6] of 0.5 nM and an IC50 [7] of 0.5 nM.

B6: Antibody A-2 (antibody, V domains shown)
VH: EVQLVESGGGLVQPGGSLRLSCAASGFTFSSYWIHWVRQAPGKGLEWVARINPPNRSNQYADSVKGRFTISADTSKNTAYLQMNSLRAEDTAVYYCARGSGFRWVMDYWGQGTLVTVSS
VL: DIQMTQSPSSLSASVGDRVTITCRASQDVSTAVAWYQQKPDGTVKLLIYSASFLYSGVPSRFSGSGSGTDFTLTISSLQPEDFATYYCQQFYTTPSTFGQGTKVEIKR
notes: also called Antibody A-2-hIgG1
With B6 the EC50 (read off the curve) [1] was 0.04 µg/mL, the “EC50 (read off the curve)” value (hFLAG-NRR-His6 (102V)) was roughly 0.06 µg/mL and the “EC50 (read off the curve)” value [2] was roughly 0.05 µg/mL. For the same binder, the “EC50 (read off the curve)” value [3] was roughly 0.07 µg/mL, the Kd [4] was 3.09 nM and the koff [4] was 0.00034 s⁻¹. The kon [4] was 110000 M⁻¹ s⁻¹, the Kd [5] was 2.53 nM and the koff [5] was 0.00022 s⁻¹. It also gave a kon [5] of 87000 M⁻¹ s⁻¹.
